Data taken from article PMC10804683, “Identification of the pyridoxal 5′‐phosphate allosteric site in human pyridox(am)ine 5′‐phosphate oxidase” (Protein Science : A Publication of the Protein Society, 2024).

Substrate: Cc1ncc(COP(=O)(O)O)c(CN)c1O
Experiment: purified protein, by the assay type
Conditions: other: F48A, 50 mM Tris–HCl pH 7.6, 37°C, 2 μM enzyme

B1: human PNPO F48A variant (Homo sapiens; F48A) (protein)
chain: MTCWLRGVTATFGRPAEWPGYLSHLCGRSAAMDLGPMRKSYRGDREAAEETHLTSLDPVKQFAAWFEEAVQCPDIGEANAMCLATCTRDGKPSARMLLLKGFGKDGFRFFTNFESRKGKELDSNPFASLVFYWEPLNRQVRVEGPVKKLPEEEAECYFHSRPKSSQIGAVVSHQSSVIPDREYLRKKNEELEQLYQDQEVPKPKSWGGYVLYPQVMEFWQGQTNRLHDRIVFRRGLPTGDSPLGPMTHRGEEDWLYERLAP
  Km: 100 ± 5 µM
  kcat: 0.1785 ± 0.003 s⁻¹
